Assay results from the DeepSol protein solubility set.

experiment: soluble on expression in E. coli; label from the status in PepcDB or PDB records

Soluble on expression in E. coli, not soluble:
MGSDKIHHHHHHMSNLSLDFSDNTFQPLAARMRPENLAQYIGQQHLLAAGKPLPRAIEAGHLHSMILWGPPGTGKTTLAEVIARYASADVERISAVTSGVKEIREAIERARQNRNAGRRTILFVDEVHRFNKSQQDAFLPHIEDGTITFIGATTENPSFELNSALLSRARVYLLKSLTTDDIEQVLDQAMQDKTRGYGDQDIVLPDETRRAIAELVNGDARRALNTLEMMADMAEADDSGKRVLLPALLTEIAGERSARFDNKGDRFYDLISALHKSVRGSAPDAALYWYARIITAGGDPLYVARRCLAIASEDVGNADPRAMQVAIAAWDCFTRVGPAEGERAIAQAIVYLACAPKSNAVYTAFKAALADARERPDYDVPVHLRNAPTKLMKEMGYGQEYRYAHDEPNAYAAGEVYFPPEIAQTRYYHPTNRGLEGKIGEKLAWLAEQDQNSPTKRYR
MGSDKIHHHHHHMSNPLLKQICELDVFTLLVFKTIFDTGHANSAAKALDVSAPKISRCLNALRLTFNDELFYRRQQGLKPTPLAESLYAAICQFTNSVYNLEQSALQIQNTHNTTDLPLHIAVSNELLSFLAPQLSSPDVITQLGKIRLHKWQENSAELIHAGELDFGITLENADNKELSYTRLGCISGIYVVASKHHPIWQTELSITLEHICRHPFLCLDLKGFNSKVDPLEFFCQRQGILLPSIDRVIDREEWYAHLLTIQSVAFCSSIDMHTVKHMPGLKLVPLSLTELHRLHDSMLPPQYYLVEKPRARRRYSQTQCDIVVSPLITTLIPTL
MGSDKIHHHHHHMSNSQILGERARILADQLLAVPTTVYQQRSLQAALHLFLDTGTKTALHRAPLVSKSAVSRLLNNYDWDTAACWALLQRSQWEALLLAARRKRRACLRLSVDLTSIEKTGKQLPFVRVYNEVHGIHLVVLFAEYRGLKFPVGYRVYRGKGTATPVSLALELLGEVPDAIRKRFRIRVLADSGFEAAVFLDGVRTLGFEFVVGVRATRRTTHPGQVTVADCEHGAWLELQNWPHDTLTLARVERGERTFFSVASELMTGDEVAAEGGKRWNIESFFKEGKHQFSLQQFALRTARGLDRWVLLVFLAFTLTMLHRSPDLSLEEAAGLALTLALPFLRLNVIFARLATDEEFLRQHGYSLKIARCNS
MGSDKIHHHHHHMSPKTALNLFSLLWQNYSARVPYARTYEQMITAAGGTVANDHIAFRSLRLLVDSPRGKVNLGINYLSQIAEALGYEPAGEYNFPQTHLYARHYRHPQQIEFDLPKLFISELIVDELPDNIIQLITQTVSTVADEFTSPLTYFSPAEGNDGVIAQQLQKFFTRPWMTPRRSVVEAVNQVTQYGAWVLLHGYAVNHFTGYVNRHQTPEYADIDDTARGLANLGVPMKAEIEGDVTWGLRQTATQAVKEMVTVIDDISGQEVEIPWTYAYYEIAQRYPLQVEPGKEKLFDGFLGNNAQQLFEMTRLVECDAAKIGK
MGSDKIHHHHHHMSQDVPGNLLDEIRILRSPKGYLYAGLPKFRALFGRDSIISSIQLIDLFPDIAQNTVIYLKDLQGRKLDYSIGEYPGKILHEYYDDEKIFLDRKRSIPWLNSRINYFSVDSTPLFILLIKNLFLRNLIDIEQFKDSIMMAMQFLIAYSSSDGLITYDKALLGAGLMSQSWRDGVGDIMDRLKSPVATVGVQGYFYESADFVLNLFPDSLIEESLPDLKDFYSKMREILENKFWLEETGYYGLAVDGDGVIEQAATSDPGHLIGSGILTRSRERDVIDRLFESDLLTDYGIRTLSAKDPRFDPKAYQRGSIWPQDNWIIADGIKRRGYLKEYRELRERLIAAYEYYGRMPEYFGVDRYGKIMDLSKLRIKPCYPQAWSTGAIINFVTFK
MGSDKIHHHHHHMSQHRDAAFLTAKSWQDLPASVPFRLCCIERIDETHDVVTFRFEAAGEPVRFSYKPGQFITLLLEIGGEPHSRAYTLSSSPSRPYSISITVKRVEGGKVSNYLIDNLRPGHALDAMGPSGSFNLVDIPADRYLFLSAGCGITPMFSMSRWLTDTRVGADITFVHSARSVDDLIFAPKLESMANNHSGFRLGYVIEQGNCPDWPYAPVLPGRLTLSGLDSLVSDWRERTLYVCGPEAYMAAVEAMVRDAGFAMSRFHKESFGKPGAPVKSSGQGFMLKVGDKLHPLGESGLLLEGIEALKLPIIAACRSGVCGACKCQVLEGDVERLSEMTLTEEDKANGMVLACSARALSNISLKL
MGSDKIHHHHHHMSQLLYDNGTHKCIAFTDLVEGEGIQANQFLIVNNGEGMLLDPGGNLTYKNLLAEMASYFLPAHLDYVFASHEDPDIVASANGWLLITDAKILIANEWTRFLPHFCSKGMTAGRVIGIPAQGMRVNLAGQELFVVPAHYMHSVGNFQVYDPVSKILFSGDLGANLVSGHDAAKVIEGAEAFAAHRAATSMDGFHRRYMGGQKVCRLWTNMARGMDIEWIVPQHGASFKGRETVLAFLDWFEGLESGPDLLTQKDFQFPIPENL
MGSDKIHHHHHHMSQMSFSDFEYAGKRKQTRRERFLAEMDQVVPWAGLLGLIEPFYPKAGGGRKPYPLETMLRIHLLQNWFSLSDPAMEEALYEITPMRQFAHLTLSAPIPEDTTIMNFRHLLEKHQLAPAILAVINGYLQEKGLSLRQGTIVDATIIHVPSSTKNKDGERDPEMHQTKKGNQYFFGMKAHISADVESGLVHHVHGTAANVADVTQVAELLHGEENAVYADAGYTGVEKREEHENRDVIWQIAARRSTYSKLNKRSLLYKAKRKIEYCKAQTRAKVEHPFRVIKRQFGYVKVRFRGLMKNTAQLTTLFALSNLWMARKRLMGLGELRI
MGSDKIHHHHHHMSQNASNDHMALSEDYVRNFFTYADPDNEAMLQLYRIGVFRTAKALSAGWIMPDEDARTARNLEYLRDNFEPGDVSVGELVSSETQLASFPDIYFRIRKVLDSPNSSADDISREISNDLGLTAKLLKLVNSPFYGLAHTVEDVSHAIAIVGVEEVSTLALGISAINVFKDIPQELIDMKAFWKHSVSCGVFAKLIASRIEGMKADKFFTAGLLHDVGRLIIFKKMPYASVQLLLYARENQLPVVESEEDHLGFDHTQVAKQLLTEWKFPASMVDCLAFHHAPSQAQDQLAASILQLADNMANAMEISSGGMYLLPGMEEGAWERIPLQGDDLVEIVGLFDSHIEELFKAIL
MGSDKIHHHHHHMSQTTVVNGVNVDQLMATIEQIKAKPEIAQFKFRATNQWMGGTHNQATIKDFYGACAEDDTRKPMVFDLDEPPVLLGENRGANPVEYLLVALSGCLTTSLVAHAAARGIALRGVKSRYEGDIDLRGFLGLSEEVPVGYREIRVFFSIDADLTDGQKEELIRMAQKYSPVYNTVAKPVPVAVLLDRG
MGSDKIHHHHHHMSRPADKPQPFYFAYGSNMNPAQIEARCRKPEVVATARLPDHRLGFFGSSKIWDGGEESAQPEPGADLWGVVYRLSFHDAEILDTWQKVWLDGTGPYFHFPTQVFDAEGRNYPVLLYKRDVLGPRQKPSAPYLDHIIAGAMARALPPPYIDLLRAIPTCQASTPVPRKASFNPEFFAGLACQCGD
MGSDKIHHHHHHMSSIYSAPILVFDVNETLLDIDTLTPLFTRLFGDENRLREWFAQLVLYSQTMTLSGLYTPFGELGVGALQMTADIHAVTLTEEDIQEFKQRMSETPAHPDVIPALTKLRDAGFRLVTLTNSAPSTSPTRLEKAGLSEFFEQNFSVDSVRQFKPAPAIYQMVASELSVETSELCLVACHIWDTIGAQAAGCQGAFVTRPYNALLSAPNVPKPDFIASDLITLAEHIINHQSS
MGSDKIHHHHHHMSSLLQQFHDEISLRGYSARTRNAYLYAITQLQHYANQPLDNITDEQLTAYFRYLNLEWHHSRATLKLQLNGIHFFYEHVLKRDFTIQLSLPKRPHKLPQLLSCQDIAALLYHCQNLKQRAMLALCYGCGLRVSELTHIKVADIDGQRQLLKVCQGKGACDRWVILSPTLLILLRQYWQAYHPVEWLFASTYHDVVYPLHESTFRKALAKAARLASITKPCSPHSLRHAYATHQLQAGMPLHQLQAQLGHHSIKSTERYLHWSPELGHQGCDLLASLGGMPWQPPTI
MGSDKIHHHHHHMSSNNRKKLLLMGRSGSGKSSMRSIIFSNYSAFDTRRLGATIDVEHSHLRFLGNMTLNLWDCGGQDVFMENYFTKQKDHIFQMVQVLIHVFDVESTEVLKDIEIFAKALKQLRKYSPDAKIFVLLHKMDLVQLDKREELFQIMMKNLSETSSEFGFPNLIGFPTSIWDESLYKAWSQIVCSLIPNMSNHQSNLKKFKEIMNALEIILFERTTFLVICSSNGENSNENHDSSDNNNVLLDPKRFEKISNIMKNFKQSCTKLKSGFKTLILNNNIYVSELSSNMVCFIVLKDMNIPQELVLENIKKAKEFFQ
MGSDKIHHHHHHMSSSSLSSTSTRVTYAVGDFVYFDDTSATDAPYQIRKIEELVKTEKGGVDARCVVYLRRRDIPQHLLKIADQAQRRFDNYYEVDKKKPENFTTKGFIVVNGASEAAPEAAPEATEASAETSETKVKEDTDDVAEKMEEDEECPAPVGQGRTSSTEEPSASDAPAATAKDKKEEKEAKENAKNLKETAEAEATKLIDWGDGGLPLGVDKLTPDQRLKLRQHEIFMTRQSEILPAAAIRGKCRVVLLGDGEEAQNYLPLDDTFYHSLVYDPNAQTLLADK
MGSDKIHHHHHHMSSWEQRSHYLIEVAQRSLIGHKTFDLCRSHLVAASQISKGTIYNHFTTEADLVVAVACAEYEEWLAAAKRDMQRYPDPLTRFLYHHCYRLHQMLSQQRYVIERVMPNQALLLQATDSYRQRFEKISTEYNHWNRLTISEIGDIPGFNRAELVKDYLRGAMINSDDANRQADDVQLYCQFSYALSQLMGHSDKRIPTKPAFVHWLSHLPSTSAISAV
MGSDKIHHHHHHMSTRESRHPVVSRSQWLAARYYLWLHEKAFTHHRDALTAARRALPWVKVEQDYRFFGPNGALSLADLFAGRSQLLLYHFMFAEGWSEGCPGCSFLADHYDGANLHLAHHDVSLVAVSRAPYAEFQAFRQRMGWQFPWYSSHGSDFNEDFGVSVGSEGQRQYNYEPYEGNESELPGLSAFFREGDGSVYHTYSTYARGLDILVNTYNFLDIAPLGRNEGGTMDWVRHHDRYEGQPDKPHCCHR
MGSDKIHHHHHHMSVSIIDRLQAIFQDVRVSEFMNPDVIYVTPDKTLLHVKEIMRIKRISGVPVVDDKKRVVGIVSLEDIIKALEGSYIKDSVEKRMTKNVVCLKETDTLQDAVKTFEKYGYGRFPVVDDEGKLVGIVTKHDIIYFLLAKLGIMYLHDKRMEEVLEKGTSLITGEVLEKGKADFVFHIDYFDVNMIGIGASKLKRFLLERGVDEELARRIAIATYEAEANVVIHSESDGYIYCFIDNEKITVRVEDRGKGIENLELAMREGYSTAPDHIRELGFGAGMGLPNMKRYSDKMVIISEVGKGVIVEMVFFRRDRGEDKGDSGKTGA
MGSDKIHHHHHHMSVTQIVTSEDILLKLCHSVSHVLSHTSGSRVTHAAMVQNISSTRLKPDLGCFSIFDGGFSGLVVINFSAASAVEIYRRYMLNMGMPESDLAFSHNSDEVGNVMGELMNQILGDFIGKVSKELQTSISQSQPKMLTINKEITISIDANLDEPVIRRVSFMTESNHIFYLEFAMDKTEFVKTREFELDEEFDPDFLIEQHGNTRSPWSQMAGKGIVADDADDLLDELGI
MGSDKIHHHHHHMSVVDPSLIERIIRDDVRAMGAYHVPDSHGLVKLDAMENPYRLPPALRSELAARLGEVALNRYPVPSSEALRAKLKEVMQVPAGMEVLLGNGSDEIISMLALAAARPGAKVMAPVPGFVMYAMSAQFAGLEFVGVPLRADFTLDRGAMLAAMAEHQPAIVYLAYPNNPTGNLFDAADMEAIVRAAQGSVCRSLVVVDEAYQPFAQESWMSRLTDFGNLLVMRTVSKLGLAGIRLGYVAGDPQWLEQLDKVRPPYNVNVLTEATALFALEHVAVLDEQAAQLRAERSRVAEGMAAHGGVTVFPSAANFLLARVPDAAQTFDRLLARKVLIKNVSKMHPLLANCLRVTVSTPEENAQFLEAFAASLQD
